Source: patent US20230137139A1, “BIOSYNTHESIS OF CANNABINOIDS AND C[…]” (priority 2020, published 2023)

B1: t861585 (protein)
chain: MGNTTSIAGRDCLVSALGGNAGLVAFQNQPLYQTTAVHEYNLNIPVTPAAITYPETAEQIAAVVKCASQYDYKVQARSGGHSFGNYGLGGTDGAVVVDMKYFNQFSMDDQTYEAVIGPGTTLGDVDVELYNNGKRAMAHGVCPTISTGGHFTMGGLGPTARQWGLALDHVEEVEVVLANSSIVRASNTQNQEVFFAVKGAAASFGIVTEFKVRTQPAPGIAVQYSYTFNLGSSAEKAQFIKDWQSFVSAKNLTRQFYTNMVIFDGDIILEGLFFGSKEQYEALRLEERFVPKNPGNILVLTDWLGMVGHALEDTILRLVGNTPTWFYAKSLGFTPDTLIPSSGIDEFFKYIENNKAGTSTWFVTLSLEGGAINDVPADATAYGHRDVLFWVQIFMVSPTGPVSSTTYDFADGLYNVLTKAVPESEGHAYLGCPDPKMANAQQKYWRQNLPRLEELKETLDPKDTFHNPQGILPA
modifications: N- and C-terminal signal peptides
B2: putative C. sativa CBCAS enzyme: previously disclosed putative C. sativa CBCAS (SEQ ID NO: 15) (protein)
chain: MNCSTFSFWFVCKIIFFFLSFNIQISIANPQENFLKCFSEYIPNNPANPKFIYTQHDQLYMSVLNSTIQNLRFTSDTTPKPLVIVTPSNVSHIQASILCSKKVGLQIRTRSGGHDAEGLSYISQVPFAIVDLRNMHTVKVDIHSQTAWVEAGATLGEVYYWINEMNENFSFPGGYCPTVGVGGHFSGGGYGALMRNYGLAADNIIDAHLVNVDGKVLDRKSMGEDLFWAIRGGGGENFGIIAACKIKLVVVPSKATIFSVKKNMEIHGLVKLFNKWQNIAYKYDKDLMLTTHFRTRNITDNHGKNKTTVHGYFSSIFLGGVDSLVDLMNKSFPELGIKKTDCKELSWIDTTIFYSGVVNYNTANFKKEILLDRSAGKKTAFSIKLDYVKKLIPETAMVKILEKLYEEEVGVGMYVLYPYGGIMDEISESAIPFPHRAGIMYELWYTATWEKQEDNEKHINWVRSVYNFTTPYVSQNPRLAYLNYRDLDLGKTNPESPNNYTQARIWGEKYFGKNFNRLVKVKTKADPNNFFRNEQSIPPLPPRHH

Legend:
CBCA production = assay: In vivo TS activity assay, Example 4 CBCAS enzymes with and without signal peptides, no pH adjustment; format: cell-based; details: strains with (Y) or without (N) N-terminal and C-terminal signal peptides; no pH adjustment at Day 4; S. cerevisiae
Protocol: An assay to detect TS activity was conducted as follows: each thawed glycerol stock of candidate CBCAS transformants was stamped into a well of YEP+4% dextrose media. Samples were incubated at 30° C. in a shaking incubator for 2 days. A portion of each of the resulting cultures was stamped into a well of YEP+4% galactose+1 mM olivetolic acid (FIG. 1 Structure 6a). Samples were incubated at 20° C. and shaken in a shaking incubator for 4 days. Every 24 hours during those 4 days, 2% galactose and 1 mM olivetolic acid were spiked into the cultures. Sodium citrate buffer adjusted to pH 5.5 was added to each well at a final concentration of 100 mM. Samples were incubated at 20° C. and shaken in a shaking incubator for 2 days. A portion of each of the resulting production cultures was stamped into a well of phosphate buffered saline (PBS). Optical measurements were taken on a plate reader, with absorbance measured at 600 nm and fluorescence at 528 nm with 485 nm excitation. Samples were incubated at 30° C. in a shaking incubator for 2 days. 100% methanol was stamped into the production cultures in half-height deepwell plates. Plates were heat sealed and frozen. Samples were then thawed for 30 min and spun down at 4° C. A portion of the supernatant was stamped into half-area 96 well plates. CBCA, THCA, and CBDA production in the samples was quantified via liquid chromatography-mass spectrometry (LC-MS).
A library of 20 CBCAS enzymes selected from Example 1 and 3 was synthesized, including versions of the CBCAS enzymes with and without the N-terminal MFalpha2 signal peptide (SEQ ID NO: 16) and C-terminal HDEL signal peptide (SEQ ID NO: 17). Each candidate enzyme expression construct was transformed into an S. cerevisiae CEN.PK strain that also expressed a prenyltransferase enzyme capable of catalyzing reaction R^4 in FIG. 2. Strain t861555 expressing the A. niger CBCAS identified in Example 1, carrying both the Mfalpha2 and HDEL signal peptides was included in the library screen as a positive control for enzyme activity. Strain t861565 expressed the same A. niger CBCAS without the Mfalpha2 and HDEL signal peptides.
The strains were screened using the assay described in Example 1 with the following exception: at Day 4 samples were not subjected to a pH adjustment and a further 2 days of incubation at 20° C.

[1] = tested on: CBCA, THCA, and CBDA production; assay: In vivo TS activity assay, Example 1 CBCAS library screen, cultures fed olivetolic acid, LC-MS; format: cell-based, S. cerevisiae; details: primary and secondary screen
From the text: To identify CBCAS genes that can be functionally expressed in host cells, a library of approximately 3000 candidate CBCAS genes was designed based on internal codebases and domain knowledge, sampled across enzyme families, ecological niches, and structural homologies. Protein sequences were recoded in silico for expression in S. cerevisiae and synthesized in the integrative yeast expression vector shown in FIG. 5. Each candidate enzyme expression construct was transformed into an S. cerevisiae CEN.PK strain that also expressed a prenyltransferase enzyme capable of catalyzing reaction R^4 in FIG. 2. Strain t616313, expressing GFP, was included in the library screen as a negative control for enzyme activity. […]
An assay to detect TS activity was conducted as follows: each thawed glycerol stock of candidate CBCAS transformants was stamped into a well of YEP+4% dextrose media. […] Optical measurements were taken on a plate reader, with absorbance measured at 600 nm and fluorescence at 528 nm with 485 nm excitation. […] CBCA, THCA, and CBDA production in the samples was quantified via liquid chromatography-mass spectrometry (LC-MS). […]

Row | Molecule | Average CBCA (CBCA production) [µg/L] | CBCAS activity / CBCA production [1]
1 | B1 | 39673.45 | 
2 | B2 |  | not found to be active
